The Kd is the free concentration of one partner at which half of the binding sites on the other are occupied at equilibrium, for simple one-to-one binding. Lower therefore signals tighter binding. Broadly, the koff is the rate constant with which the complex falls apart. Read a high koff as fast dissociation. As a reminder, the kon is a measure of how fast the partners come together. The low end stands for slower complex formation, the high end for faster complex formation.

From patent publication US20240309112A1 (MITSUBISHI TANABE PHARMA, published 2024) come the findings set out here.

Where a chain is given by its changes, count along the chain named.

First the molecules themselves.
B1: Lib2(4R)-1-47 (antibody, V domains shown)
VH: EVQLLESGGGLVQPGGSLRLSCAASGFTFSTYAMGWVRQAPGKGLEFVAAIRNDGSWTGYGTPYKTRFTISRDNSKNTLYLQMNSLRAEDTAVYYCAKYTGSSGGSIGAWGQGTLVTVSS
VL: SYELTQPPSVSVSPGQTARITCSGGNRNYYYGWYQQKPGQAPVTVIYANDKRPSGIPERFSGSNSGSTTTLTISGVQAEDEADYYCGTATTGKYVFGGGTKLTVLG
notes: Tested as full-length antibody (human IgG1/human k) from Expi293; also called Lib(4R)-1-47
B2: anti-PAD4 antibody 2-1-47 (antibody, human IgG1, lambda, V domains shown)
VH: B1 VH with N84S
VL: B1 VL
notes: Lib2(4R)-1-47 with the 84th asparagine of the heavy chain substituted with serine; full-length IgG from ExpiCHO
B3: humanized anti-PAD4 antibody G8 (antibody, human IgG1, lambda, V domains shown)
VH: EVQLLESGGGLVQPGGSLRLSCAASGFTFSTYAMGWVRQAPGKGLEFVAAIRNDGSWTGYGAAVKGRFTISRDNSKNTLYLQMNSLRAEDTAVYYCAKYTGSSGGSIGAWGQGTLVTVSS
VL: B1 VL with T90D
notes: Full-length IgG, described in WO 2016/143753; also called test antibody G8; parent clone G8
B4: Lib1(6R)-2-37 (antibody, human IgG1, lambda, V domains shown)
VH: B1 VH with Y60I, T62Y, P63N, Y64Q, T66S, A97G
VL: B1 VL with T90L
notes: Tested as full-length antibody (human IgG1/human k) from Expi293
B5: anti-PAD4 antibody 3-1-39 (antibody, human IgG1, lambda, V domains shown)
VH: B1 VH with Y60T, G61S, T62V, P63N, Y64A, N84S
VL: B1 VL
notes: Lib1(6R)-1-39 with the 84th asparagine of the heavy chain substituted with serine; full-length IgG from ExpiCHO
B6: anti-PAD4 antibody 3-2-37 (antibody, human IgG1, lambda, V domains shown)
VH: B1 VH with Y60I, T62Y, P63N, Y64Q, T66S, N84S, A97G
VL: B1 VL with T90L
notes: Lib1(6R)-2-37 with the 84th asparagine of the heavy chain substituted with serine; full-length IgG from ExpiCHO
B7: humanized anti-PAD4 antibody G8ss (antibody, human IgG1, lambda, V domains shown)
VH: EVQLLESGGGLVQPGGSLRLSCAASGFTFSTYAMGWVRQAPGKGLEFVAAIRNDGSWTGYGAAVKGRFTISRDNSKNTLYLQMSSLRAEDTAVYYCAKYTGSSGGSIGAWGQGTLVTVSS
VL: B1 VL with T90D
notes: G8 with the 84th asparagine of the heavy chain substituted with serine; full-length IgG; also called test antibody G8ss
B8: Lib1(6R)-1-39 (antibody, human IgG1, lambda, V domains shown)
VH: B1 VH with Y60T, G61S, T62V, P63N, Y64A
VL: B1 VL
notes: as for B4
B9: Lib2(5R)-2-25 (antibody, human IgG1, lambda, V domains shown)
VH: B1 VH with G61P, T62P, Y64L, T66G
VL: B1 VL with T90Y
notes: as for B4
B10: anti-PAD4 antibody 4-2-25 (antibody, human IgG1, lambda, V domains shown)
VH: B1 VH with G61P, T62P, Y64L, T66G, N84S
VL: B1 VL with T90Y
notes: Lib2(5R)-2-25 with the 84th asparagine of the heavy chain substituted with serine; full-length IgG from ExpiCHO

T1 sequence (Q9UM07 whole entry): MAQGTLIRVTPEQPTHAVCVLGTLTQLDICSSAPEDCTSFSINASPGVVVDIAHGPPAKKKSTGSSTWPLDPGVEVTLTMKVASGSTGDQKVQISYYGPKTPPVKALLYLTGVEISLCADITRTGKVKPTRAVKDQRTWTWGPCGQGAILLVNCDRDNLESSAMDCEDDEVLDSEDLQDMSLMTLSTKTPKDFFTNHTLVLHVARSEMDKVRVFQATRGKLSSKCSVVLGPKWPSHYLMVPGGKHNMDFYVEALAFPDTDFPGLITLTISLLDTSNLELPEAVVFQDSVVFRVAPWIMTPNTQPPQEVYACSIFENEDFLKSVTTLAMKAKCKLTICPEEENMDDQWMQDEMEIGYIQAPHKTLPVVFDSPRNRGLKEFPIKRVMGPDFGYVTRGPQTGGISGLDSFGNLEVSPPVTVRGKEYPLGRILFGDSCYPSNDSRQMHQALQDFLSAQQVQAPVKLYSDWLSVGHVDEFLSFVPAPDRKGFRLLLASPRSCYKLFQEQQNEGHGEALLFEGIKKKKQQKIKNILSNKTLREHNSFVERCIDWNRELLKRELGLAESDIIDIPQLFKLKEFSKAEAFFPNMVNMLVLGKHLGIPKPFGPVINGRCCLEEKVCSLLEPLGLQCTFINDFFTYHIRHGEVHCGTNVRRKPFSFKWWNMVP
Sequence of Human PAD4 (enzyme inhibition assays) (Q9UM07 whole entry): as above

The first experiment addresses Human PAD4 (enzyme inhibition assays) (human, UniProt Q9UM07 1-663, limits assumed). Put plainly: cell-based or functional assay.
Turning to B1, the “IC50, human PAD4 enzyme inhibitory activity (citrullination of BAEE, colorimetric)” value came out at 9.6 nM.

Regarding B2, the “IC50, human PAD4 enzyme inhibitory activity (citrullination of BAEE, colorimetric)” value stood at 12.2 nM.

Consider B3, for which the “IC50, human PAD4 enzyme inhibitory activity (citrullination of BAEE, colorimetric)” value amounted to 21.6 nM.

As for B4, the “IC50, human PAD4 enzyme inhibitory activity (citrullination of BAEE, colorimetric)” value was 13.4 nM.

For the molecule B5, the “IC50, human PAD4 enzyme inhibitory activity (citrullination of BAEE, colorimetric)” value was found to be 8.8 nM.

Regarding B6, the “IC50, human PAD4 enzyme inhibitory activity (citrullination of BAEE, colorimetric)” value amounted to 15.3 nM.

For the molecule B7, the “IC50, human PAD4 enzyme inhibitory activity (citrullination of BAEE, colorimetric)” value is 20.3 nM.

For the molecule B8, the “IC50, human PAD4 enzyme inhibitory activity (citrullination of BAEE, colorimetric)” value is 8.7 nM.

On to B9, for which the “IC50, human PAD4 enzyme inhibitory activity (citrullination of BAEE, colorimetric)” value stood at 8.3 nM.

On to B10, for which the “IC50, human PAD4 enzyme inhibitory activity (citrullination of BAEE, colorimetric)” value amounted to 7.6 nM.

The next experiment concerns the target T1, human PAD4 (Cayman Chemical company, Cat 10500) (human, UniProt Q9UM07 1-663).
T1 construct: Bought protein
As to the kind of experiment: SPR, Biacore T200, antibody captured on Protein A chip, 50 nM human PAD4 as analyte; antigen binding amount divided by antibody binding amount. As to the method:
In order to investigate an antigen-binding ability after the storage, antigen-binding activity measurements were performed using a surface plasmon resonance apparatus Biacore T200 (GE Healthcare). Cryopreserved test antibodies and test antibodies stored at 4° C. or 40° C. for 4 weeks were prepared to 10 μg/mL using a running buffer solution HBS-EP+. Using a Series S Sensorchip Protein A (GE Healthcare), a test antibody solution was added to a flow cell 2 at a flow rate of 10 μL/min for 60 seconds and immobilized on a sensor chip. A flow cell 1 was used as a reference cell. A binding amount 55 seconds after the completion of the addition of the test antibody to the flow cell 2 was subtracted from a binding amount of the flow cell 1 to obtain an antibody binding amount. Next, human PAD4 (Cayman Chemical company, Cat 10500) was prepared to 50 nM using HBS-EP+ and used as an analyte solution. The analyte solution was added at a flow rate of 30 μL/min for 120 seconds to obtain a sensorgram of a bound phase. A binding amount 5 seconds before the completion of the addition of the analyte solution to the flow cell 2 was subtracted from a binding amount of the flow cell 1 to obtain an antigen binding amount. Subsequently, a running buffer solution was added for 180 seconds to obtain a sensorgram of a dissociated phase. The measurements were performed at 25° C. The antibody binding amount and the antigen binding amount were calculated using a data analysis program (GE Healthcare, Biacore T200 Evaluation Software v3.1), and the antigen binding amount under each condition was divided by the antibody binding amount to obtain a relative antigen binding amount. There was no change between the relative antigen-binding amount of a cryopreserved test antibody and the relative antigen-binding amount of a test antibody stored at 4° C. The relative antigen-binding amounts of various test antibodies stored at 40° C. for 4 weeks were compared to the relative antigen-binding amounts of the test antibodies stored at 4° C. for 4 weeks, and the antigen-binding activities were determined.
Regarding B2, the “antigen-binding activity after storage at 40° C. for 4 weeks, relative to storage at 4° C.” value was determined as 95.6%.

In the case of B5, the “antigen-binding activity after storage at 40° C. for 4 weeks, relative to storage at 4° C.” value turned out to be 93.9%.

Take B6: the “antigen-binding activity after storage at 40° C. for 4 weeks, relative to storage at 4° C.” value stood at 94.7%.

As for B7, the “antigen-binding activity after storage at 40° C. for 4 weeks, relative to storage at 4° C.” value turned out to be 82.2%.

Consider B10, for which the “antigen-binding activity after storage at 40° C. for 4 weeks, relative to storage at 4° C.” value came to 97%.

The target in the next experiment is T2, biotin-labeled human PAD4 protein (human, UniProt Q9UM07 1-663, biotin on the Avi tag (biotin ligase BirA)).
T2 construct: also called Avi tag-human PAD4; biotin-labeled PAD4; not shown: Avi tag left on the N-terminal side after the GST tag was cleaved with PreScission Protease
T2 sequence (Q9UM07 whole entry): as above
As to the kind of experiment: SPR, Biacore T200, biotin-labeled human PAD4 captured on chip, antibody as analyte, single-cycle, 1:1 model. As to the method:
A biotin-labeled human PAD4 protein was immobilized on a sensor chip using a Biotin Capture Kit (GE Healthcare). The PAD4 protein was prepared to 0.5 μg/mL using HBS-EP+ and used as a ligand solution. The ligand solution was added to a flow cell at a flow rate of 10 μL/min for 30 seconds, and then HBS-EP+ was added for 60 seconds. A flow cell to which no ligand solution was added was used as a reference cell. The test antibody was prepared from several hundred pM to several nM using HBS-EP+ and used as an analyte solution. Further, a running buffer solution was used as a blank solution. The blank solution or the analyte solution was added at a flow rate of 30 μL/min for 180 seconds using a single-cycle method, and a dissociation time was 1200 seconds. A sensorgram of the reference cell is subtracted from a sensorgram of the flow cell to which the ligand was added when the blank solution or the analyte solution was added, and further, a sensorgram to which the blank solution was added was subtracted from the sensorgram to which the analyte solution was added, and the result was used for analysis. Binding parameters were calculated using a 1:1 binding model using Biacore T200 Evaluation software (GE Healthcare). […] The dissociation constants of the antibodies 2-1-47, 3-1-39, 3-2-37, and 4-2-25 with improved complementarity determining regions with respect to human PAD4 protein were respectively 31, 48, 73, and 20 pM.
(In general: In SPR one partner is held on a chip, and binding of the other changes the refractive index at the surface.)
B2: the affinity, expressed as Kd, was 0.031 nM; the koff was found to be 0.000507 s⁻¹; the on-rate constant (kon) came out at 1.61e+07 M⁻¹ s⁻¹.

B5 returned a dissociation constant (Kd) of 0.048 nM, a koff of 0.000626 s⁻¹ and a kon of 1.3e+07 M⁻¹ s⁻¹.

B6 registered a dissociation constant (Kd) of 0.073 nM, a koff of 0.000617 s⁻¹ and a kon of 8.51e+06 M⁻¹ s⁻¹.

Regarding B7, the affinity, expressed as Kd, was 0.199 nM; the koff came to 0.00122 s⁻¹; the on-rate (kon) was 6.15e+06 M⁻¹ s⁻¹.

Regarding B10, the Kd turned out to be 0.02 nM, the off-rate (koff) came to 0.000299 s⁻¹ and the kon amounted to 1.47e+07 M⁻¹ s⁻¹.

In the next experiment the target is T2, biotin-labeled human PAD4 protein. The description is as above. The source holds these as a separate data set. As to the method:
Binding affinities of the test antibodies G8 and G8ss with respect to human PAD4 proteins were determined by measuring a dissociation constant (KD) in HBS-EP+ using a surface plasmon resonance apparatus Biacore T200 (GE Healthcare). A biotin-labeled human PAD4 protein was immobilized on a sensor chip using a Biotin Capture Kit (GE Healthcare). The PAD4 protein was prepared to 0.25 μg/mL using HBS-EP+ and used as a ligand solution. The ligand solution was added to a flow cell at a flow rate of […] for 30 seconds, and then HBS-EP+ was added for 60 seconds. A flow cell to which no ligand solution was added was used as a reference cell. The test antibody was prepared from several hundred pM to several nM using HBS-EP+ and used as an analyte solution. Further, a running buffer solution was used as a blank solution. The blank solution or the analyte solution was added at a flow rate of 30 μL/min for 180 seconds using a single-cycle method, and a dissociation time was 1200 seconds. A sensorgram of the reference cell is subtracted from a sensorgram of the flow cell to which the ligand was added when the blank solution or the analyte solution was added, and further, a sensorgram to which the blank solution was added was subtracted from the sensorgram to which the analyte solution was added, and the result was used for analysis. Binding parameters were calculated using a 1:1 binding model using Biacore T200 Evaluation software (GE Healthcare).
The molecule B3 came in with a Kd of 0.214 nM, an off-rate (koff) of 0.00165 s⁻¹ and an association rate constant (kon) of 7.7e+06 M⁻¹ s⁻¹.

B7 gave a dissociation constant (Kd) of 0.276 nM, a koff of 0.00176 s⁻¹ and an on-rate (kon) of 6.37e+06 M⁻¹ s⁻¹.

The target is the same in a further experiment. Put plainly: SPR, Biacore T200, biotin-labeled human PAD4 captured on chip, IgG as analyte.
B1 yielded a Kd of 0.0175 nM, an off-rate constant (koff) of 0.000164 s⁻¹ and an on-rate constant (kon) of 9.39e+06 M⁻¹ s⁻¹.

Molecule B3 yielded a Kd of 0.208 nM, a koff of 0.00146 s⁻¹ and a kon of 7.03e+06 M⁻¹ s⁻¹.

As for B4, the Kd was 0.0358 nM, the off-rate constant (koff) is 0.000361 s⁻¹ and the on-rate (kon) turned out to be 1.01e+07 M⁻¹ s⁻¹.

The molecule B8 displayed a dissociation constant (Kd) of 0.0183 nM, a koff of 0.000108 s⁻¹ and a kon of 5.9e+06 M⁻¹ s⁻¹.

Consider B9, for which binding was put at a Kd of 0.0158 nM, the koff amounted to 0.000202 s⁻¹ and the kon worked out at 1.28e+07 M⁻¹ s⁻¹.
